B1: spastin MIT domain, purified (domain or fragment)
chain: HKQAFEYISIALRIDEDEKAGQKEQAVEWYKKGIEELEKGIAVIVTGQGEQCERARRLQAKMMTNLVMAKDRLQLL
B2: spastin F124D MIT domain, purified (domain or fragment)
chain: HKQADEYISIALRIDEDEKAGQKEQAVEWYKKGIEELEKGIAVIVTGQGEQCERARRLQAKMMTNLVMAKDRLQLL
B3: spartin MIT domain (residues 1-107), purified (domain or fragment)
chain: MEQEPQNGEPAEIKIIREAYKKAFLFVNKGLNTDELGQKEEAKNYYKQGIGHLLRGISISSKESEHTGPGWESARQMQQKMKETLQNVRTRLEILEKGLATSLQNDL

For three molecules, Kd results are on record in article PMC2947466.

The target of this assay is GST-Ist1-CTR (residues 296-335) (human). Description: SPR. (Surface plasmon resonance follows binding to a sensor surface in real time, without labels.)
In turn, B1 yielded a Kd of 4.6 µM.

B2 came in with a Kd of 471 µM.

With B3, the Kd amounted to 10.4 µM.

In general, Kd refers to the free concentration of one partner at which half of the binding sites on the other are occupied at equilibrium, for simple one-to-one binding.
